Data reported in publication PMC12416549 (2024).

T1: TNFR1 (Homo sapiens, UniProt P19438)
T1 chain: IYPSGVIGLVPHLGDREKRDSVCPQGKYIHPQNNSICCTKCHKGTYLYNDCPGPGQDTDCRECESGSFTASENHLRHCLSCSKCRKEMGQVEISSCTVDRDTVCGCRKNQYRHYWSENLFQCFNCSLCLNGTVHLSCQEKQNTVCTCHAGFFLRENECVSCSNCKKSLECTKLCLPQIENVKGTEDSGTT


Target: T1, TNFR1
Experiment: yeast display SC50

Row | apparent Kd (screen) | Binder
1 | 1.05 nM | E82D (designed binder) SMEEEVEKAAKEYEKKKKEAIEKHLEKLKAKDKEAAERFLKELEEAAKEYAKDEAKTMSEEEAKRRAKKYKEKVLLSELSEDEQKEIKEAEEKLVRTILKYVEEAAK
2 | 0.446 nM | A51Q (designed binder) SMEEEVEKAAKEYEKKKKEAIEKHLEKLKAKDKEAAERFLKELEEAAKEYQKDEAKTMSEEEAKRRAKKYKEKVLLSELSEEEQKEIKEAEEKLVRTILKYVEEAAK
3 | 7.07 nM | A67R (designed binder) SMEEEVEKAAKEYEKKKKEAIEKHLEKLKAKDKEAAERFLKELEEAAKEYAKDEAKTMSEEEAKRRRKKYKEKVLLSELSEEEQKEIKEAEEKLVRTILKYVEEAAK
4 | 11.4 nM | I98S (designed binder) SMEEEVEKAAKEYEKKKKEAIEKHLEKLKAKDKEAAERFLKELEEAAKEYAKDEAKTMSEEEAKRRAKKYKEKVLLSELSEEEQKEIKEAEEKLVRTSLKYVEEAAK
5 | 1.27 nM | E83L (designed binder) SMEEEVEKAAKEYEKKKKEAIEKHLEKLKAKDKEAAERFLKELEEAAKEYAKDEAKTMSEEEAKRRAKKYKEKVLLSELSEELQKEIKEAEEKLVRTILKYVEEAAK
6 | 2.73 nM | L79A (designed binder) SMEEEVEKAAKEYEKKKKEAIEKHLEKLKAKDKEAAERFLKELEEAAKEYAKDEAKTMSEEEAKRRAKKYKEKVLLSEASEEEQKEIKEAEEKLVRTILKYVEEAAK
7 | 5.84 nM | Y70Q (designed binder) SMEEEVEKAAKEYEKKKKEAIEKHLEKLKAKDKEAAERFLKELEEAAKEYAKDEAKTMSEEEAKRRAKKQKEKVLLSELSEEEQKEIKEAEEKLVRTILKYVEEAAK
8 | 4.83 nM | L76A (designed binder) SMEEEVEKAAKEYEKKKKEAIEKHLEKLKAKDKEAAERFLKELEEAAKEYAKDEAKTMSEEEAKRRAKKYKEKVLASELSEEEQKEIKEAEEKLVRTILKYVEEAAK
9 | 0.446 nM | E60W (designed binder) SMEEEVEKAAKEYEKKKKEAIEKHLEKLKAKDKEAAERFLKELEEAAKEYAKDEAKTMSWEEAKRRAKKYKEKVLLSELSEEEQKEIKEAEEKLVRTILKYVEEAAK
10 | 9.41 nM | E72K (designed binder) SMEEEVEKAAKEYEKKKKEAIEKHLEKLKAKDKEAAERFLKELEEAAKEYAKDEAKTMSEEEAKRRAKKYKKKVLLSELSEEEQKEIKEAEEKLVRTILKYVEEAAK
11 | 1.4 nM | V102C (designed binder) SMEEEVEKAAKEYEKKKKEAIEKHLEKLKAKDKEAAERFLKELEEAAKEYAKDEAKTMSEEEAKRRAKKYKEKVLLSELSEEEQKEIKEAEEKLVRTILKYCEEAAK
12 | 9.41 nM | V74F (designed binder) SMEEEVEKAAKEYEKKKKEAIEKHLEKLKAKDKEAAERFLKELEEAAKEYAKDEAKTMSEEEAKRRAKKYKEKFLLSELSEEEQKEIKEAEEKLVRTILKYVEEAAK
13 | 0.49 nM | Y101T (designed binder) SMEEEVEKAAKEYEKKKKEAIEKHLEKLKAKDKEAAERFLKELEEAAKEYAKDEAKTMSEEEAKRRAKKYKEKVLLSELSEEEQKEIKEAEEKLVRTILKTVEEAAK
14 | 13.8 nM | V95F (designed binder) SMEEEVEKAAKEYEKKKKEAIEKHLEKLKAKDKEAAERFLKELEEAAKEYAKDEAKTMSEEEAKRRAKKYKEKVLLSELSEEEQKEIKEAEEKLFRTILKYVEEAAK
15 | 0.79 nM | E82M (designed binder) SMEEEVEKAAKEYEKKKKEAIEKHLEKLKAKDKEAAERFLKELEEAAKEYAKDEAKTMSEEEAKRRAKKYKEKVLLSELSEMEQKEIKEAEEKLVRTILKYVEEAAK
16 | 11.4 nM | S77D (designed binder) SMEEEVEKAAKEYEKKKKEAIEKHLEKLKAKDKEAAERFLKELEEAAKEYAKDEAKTMSEEEAKRRAKKYKEKVLLDELSEEEQKEIKEAEEKLVRTILKYVEEAAK

The next lines start with the binder.

Row | Binder | apparent Kd (screen)
17 | A35S (designed binder) SMEEEVEKAAKEYEKKKKEAIEKHLEKLKAKDKESAERFLKELEEAAKEYAKDEAKTMSEEEAKRRAKKYKEKVLLSELSEEEQKEIKEAEEKLVRTILKYVEEAAK | 0.79 nM
18 | E42F (designed binder) SMEEEVEKAAKEYEKKKKEAIEKHLEKLKAKDKEAAERFLKFLEEAAKEYAKDEAKTMSEEEAKRRAKKYKEKVLLSELSEEEQKEIKEAEEKLVRTILKYVEEAAK | 12.5 nM
19 | Y13T (designed binder) SMEEEVEKAAKETEKKKKEAIEKHLEKLKAKDKEAAERFLKELEEAAKEYAKDEAKTMSEEEAKRRAKKYKEKVLLSELSEEEQKEIKEAEEKLVRTILKYVEEAAK | 1.69 nM
20 | A36P (designed binder) SMEEEVEKAAKEYEKKKKEAIEKHLEKLKAKDKEAPERFLKELEEAAKEYAKDEAKTMSEEEAKRRAKKYKEKVLLSELSEEEQKEIKEAEEKLVRTILKYVEEAAK | 0.446 nM
21 | E4A (designed binder) SMEAEVEKAAKEYEKKKKEAIEKHLEKLKAKDKEAAERFLKELEEAAKEYAKDEAKTMSEEEAKRRAKKYKEKVLLSELSEEEQKEIKEAEEKLVRTILKYVEEAAK | 0.539 nM
22 | Y50G (designed binder) SMEEEVEKAAKEYEKKKKEAIEKHLEKLKAKDKEAAERFLKELEEAAKEGAKDEAKTMSEEEAKRRAKKYKEKVLLSELSEEEQKEIKEAEEKLVRTILKYVEEAAK | 10.4 nM
23 | K29D (designed binder) SMEEEVEKAAKEYEKKKKEAIEKHLEKLDAKDKEAAERFLKELEEAAKEYAKDEAKTMSEEEAKRRAKKYKEKVLLSELSEEEQKEIKEAEEKLVRTILKYVEEAAK | 0.49 nM
24 | E5Q (designed binder) SMEEQVEKAAKEYEKKKKEAIEKHLEKLKAKDKEAAERFLKELEEAAKEYAKDEAKTMSEEEAKRRAKKYKEKVLLSELSEEEQKEIKEAEEKLVRTILKYVEEAAK | 0.446 nM
25 | H24D (designed binder) SMEEEVEKAAKEYEKKKKEAIEKDLEKLKAKDKEAAERFLKELEEAAKEYAKDEAKTMSEEEAKRRAKKYKEKVLLSELSEEEQKEIKEAEEKLVRTILKYVEEAAK | 1.4 nM
26 | K29T (designed binder) SMEEEVEKAAKEYEKKKKEAIEKHLEKLTAKDKEAAERFLKELEEAAKEYAKDEAKTMSEEEAKRRAKKYKEKVLLSELSEEEQKEIKEAEEKLVRTILKYVEEAAK | 0.593 nM
